Reference: patent US7558625B2, “Combined micro-channel generation and iontophoresis for transdermal delivery of pharmaceutical agents” (TransPharma Medical Ltd., priority 2004, dated 2009)

Assay: Transdermal delivery of hGH by ViaDerm and iontophoresis in anesthetized pigs, plasma hGH
Format: in vivo
Design: average AUC: unit: ng×hr/ml
Protocol: ViaDerm applications were performed on 8 adjacent sites on the marginal ear of each of the pigs using 80 μm electrodes and 2 bursts.
2 groups of pigs (males, 10-15 kg, large white) were tested: • Group 1: SC (250 μg)—3 pigs (no. 3, 9 and 25). • Group 2: ViaDerm and then iontophoresis was applied 5 times, each iontophoresis patch contained 22.5 mg (22.5×5; total of 112.5 mg)—3 pigs (no. 19, 20 and 21). Results

With “hGH: human growth hormone (Genotropin, Pharmacia and Upjohn)” as the substance, how does the hGH plasma levels (SC 0.25 mg hGH, pig3, 0 h) read?
The hGH plasma levels was 0.14 ng/mL.

What about the hGH plasma levels (SC 0.25 mg hGH, pig3, 1 h) of the same substance?
The hGH plasma levels was 6.40 ng/mL.

And the hGH plasma levels (SC 0.25 mg hGH, pig3, 2 h)?
The hGH plasma levels was 10.57 ng/mL.

What about the hGH plasma levels (SC 0.25 mg hGH, pig3, 3 h) of the same substance?
The hGH plasma levels was 6.02 ng/mL.

And the hGH plasma levels (SC 0.25 mg hGH, pig3, 4 h)?
The hGH plasma levels was 5.39 ng/mL.

And the hGH plasma levels (SC 0.25 mg hGH, pig3, 5 h)?
The hGH plasma levels was 2.57 ng/mL.

What about the hGH plasma levels (SC 0.25 mg hGH, pig3, 6 h) of the same substance?
The hGH plasma levels was 3.35 ng/mL.

And the hGH plasma levels (SC 0.25 mg hGH, pig3, 7 h)?
The hGH plasma levels was 2.40 ng/mL.

What about the hGH plasma levels (SC 0.25 mg hGH, pig3, 8 h) of the same substance?
The hGH plasma levels was 2.00 ng/mL.

And the hGH plasma levels (SC 0.25 mg hGH, pig3, 9 h)?
The hGH plasma levels was 1.48 ng/mL.

And the hGH plasma levels (SC 0.25 mg hGH, pig3, 10 h)?
Its hGH plasma levels is 1.18 ng/mL.

And the hGH plasma levels (SC 0.25 mg hGH, pig3, 11 h)?
Its hGH plasma levels is 1.49 ng/mL.

And the hGH plasma levels (SC 0.25 mg hGH, pig3, 12 h)?
The hGH plasma levels was 1.75 ng/mL.

And the hGH plasma levels (SC 0.25 mg hGH, pig9, 0 h)?
Its hGH plasma levels is 0.08 ng/mL.

And the hGH plasma levels (SC 0.25 mg hGH, pig9, 1 h)?
Its hGH plasma levels is 22.96 ng/mL.

And the hGH plasma levels (SC 0.25 mg hGH, pig9, 2 h)?
The hGH plasma levels was 18.06 ng/mL.

What about the hGH plasma levels (SC 0.25 mg hGH, pig9, 3 h) of the same substance?
Its hGH plasma levels is 15.88 ng/mL.

What about the hGH plasma levels (SC 0.25 mg hGH, pig9, 4 h) of the same substance?
Its hGH plasma levels is 12.39 ng/mL.

What about the hGH plasma levels (SC 0.25 mg hGH, pig9, 5 h) of the same substance?
The hGH plasma levels was 9.85 ng/mL.

And the hGH plasma levels (SC 0.25 mg hGH, pig9, 6 h)?
The hGH plasma levels was 6.53 ng/mL.

What about the hGH plasma levels (SC 0.25 mg hGH, pig9, 7 h) of the same substance?
The hGH plasma levels was 6.31 ng/mL.

And the hGH plasma levels (SC 0.25 mg hGH, pig9, 8 h)?
Its hGH plasma levels is 4.19 ng/mL.

And the hGH plasma levels (SC 0.25 mg hGH, pig9, 9 h)?
The hGH plasma levels was 2.58 ng/mL.

And the hGH plasma levels (SC 0.25 mg hGH, pig9, 10 h)?
Its hGH plasma levels is 1.83 ng/mL.

And the hGH plasma levels (SC 0.25 mg hGH, pig9, 11 h)?
Its hGH plasma levels is 1.25 ng/mL.

What about the hGH plasma levels (SC 0.25 mg hGH, pig9, 12 h) of the same substance?
Its hGH plasma levels is 0.88 ng/mL.

And the hGH plasma levels (SC 0.25 mg hGH, pig25, 0 h)?
The hGH plasma levels was 0.10 ng/mL.

And the hGH plasma levels (SC 0.25 mg hGH, pig25, 1 h)?
Its hGH plasma levels is 38.06 ng/mL.

And the hGH plasma levels (SC 0.25 mg hGH, pig25, 2 h)?
The hGH plasma levels was 31.00 ng/mL.

And the hGH plasma levels (SC 0.25 mg hGH, pig25, 3 h)?
The hGH plasma levels was 16.32 ng/mL.

What about the hGH plasma levels (SC 0.25 mg hGH, pig25, 4 h) of the same substance?
The hGH plasma levels was 13.40 ng/mL.

What about the hGH plasma levels (SC 0.25 mg hGH, pig25, 5 h) of the same substance?
The hGH plasma levels was 8.69 ng/mL.

And the hGH plasma levels (SC 0.25 mg hGH, pig25, 6 h)?
The hGH plasma levels was 6.66 ng/mL.

What about the hGH plasma levels (SC 0.25 mg hGH, pig25, 7 h) of the same substance?
The hGH plasma levels was 3.89 ng/mL.

And the hGH plasma levels (SC 0.25 mg hGH, pig25, 8 h)?
Its hGH plasma levels is 2.76 ng/mL.

What about the hGH plasma levels (SC 0.25 mg hGH, pig25, 9 h) of the same substance?
Its hGH plasma levels is 1.67 ng/mL.

And the hGH plasma levels (SC 0.25 mg hGH, pig25, 10 h)?
Its hGH plasma levels is 1.19 ng/mL.

And the hGH plasma levels (SC 0.25 mg hGH, pig25, 11 h)?
Its hGH plasma levels is 1.09 ng/mL.

And the hGH plasma levels (SC 0.25 mg hGH, pig25, 12 h)?
Its hGH plasma levels is 0.78 ng/mL.

And the hGH plasma levels (SC 0.25 mg hGH, pigs, Average, 0 h)?
Its hGH plasma levels is 0.1 ng/mL.

What about the hGH plasma levels (SC 0.25 mg hGH, pigs, Average, 1 h) of the same substance?
The hGH plasma levels was 22.5 ng/mL.

What about the hGH plasma levels (SC 0.25 mg hGH, pigs, Average, 2 h) of the same substance?
The hGH plasma levels was 19.9 ng/mL.

And the hGH plasma levels (SC 0.25 mg hGH, pigs, Average, 3 h)?
Its hGH plasma levels is 12.7 ng/mL.

And the hGH plasma levels (SC 0.25 mg hGH, pigs, Average, 4 h)?
The hGH plasma levels was 10.4 ng/mL.

And the hGH plasma levels (SC 0.25 mg hGH, pigs, Average, 5 h)?
The hGH plasma levels was 7.0 ng/mL.

And the hGH plasma levels (SC 0.25 mg hGH, pigs, Average, 6 h)?
The hGH plasma levels was 5.5 ng/mL.

What about the hGH plasma levels (SC 0.25 mg hGH, pigs, Average, 7 h) of the same substance?
The hGH plasma levels was 4.2 ng/mL.

And the hGH plasma levels (SC 0.25 mg hGH, pigs, Average, 8 h)?
The hGH plasma levels was 3.0 ng/mL.

What about the hGH plasma levels (SC 0.25 mg hGH, pigs, Average, 9 h) of the same substance?
Its hGH plasma levels is 1.9 ng/mL.

What about the hGH plasma levels (SC 0.25 mg hGH, pigs, Average, 11 h) of the same substance?
Its hGH plasma levels is 1.3 ng/mL.

And the hGH plasma levels (SC 0.25 mg hGH, pigs, Average, 12 h)?
The hGH plasma levels was 1.1 ng/mL.

And the “average AUC” value (SC 250 μg, 3 pigs)?
Its value is 90.3.

And the AUC (SC 250 μg, pig no. 3)?
The AUC was 44 ng·h/mL.

What about the AUC (SC 250 μg, pig no. 9) of the same substance?
Its AUC is 102 ng·h/mL.

What about the AUC (SC 250 μg, pig no. 25) of the same substance?
The AUC was 125 ng·h/mL.

And the Amount delivered (SC 250 μg, pigs)?
The Amount delivered was 250 µg.

And the “average AUC” value (ViaDerm, Ionto 22.5 mg × 5, 3 pigs)?
Its value is 210.3.

What about the AUC (ViaDerm, Ionto 22.5 mg × 5, pig no. 19) of the same substance?
Its AUC is 138 ng·h/mL.

And the AUC (ViaDerm, Ionto 22.5 mg × 5, pig no. 20)?
The AUC was 215 ng·h/mL.

What about the AUC (ViaDerm, Ionto 22.5 mg × 5, pig no. 21) of the same substance?
Its AUC is 278 ng·h/mL.

What about the Amount delivered (ViaDerm, Ionto 22.5 mg × 5, pigs) of the same substance?
The Amount delivered was 589 µg.

And the hGH plasma levels (ViaDerm, Iontoph. × 5 Total 112.5 mg hGH, pig19, 0 h)?
Its hGH plasma levels is 0.04 ng/mL.

And the hGH plasma levels (ViaDerm, Iontoph. × 5 Total 112.5 mg hGH, pig19, 1 h)?
Its hGH plasma levels is 8.39 ng/mL.

And the hGH plasma levels (ViaDerm, Iontoph. × 5 Total 112.5 mg hGH, pig19, 2 h)?
Its hGH plasma levels is 18.46 ng/mL.

And the hGH plasma levels (ViaDerm, Iontoph. × 5 Total 112.5 mg hGH, pig19, 3 h)?
The hGH plasma levels was 24.50 ng/mL.

And the hGH plasma levels (ViaDerm, Iontoph. × 5 Total 112.5 mg hGH, pig19, 4 h)?
The hGH plasma levels was 25.34 ng/mL.

What about the hGH plasma levels (ViaDerm, Iontoph. × 5 Total 112.5 mg hGH, pig19, 5 h) of the same substance?
The hGH plasma levels was 25.27 ng/mL.
